Laboratory results from paper doi:10.1101/839423, “Mechanism of the secretion of the lanthipeptide nisin” (bioRxiv, 2019).

T1: NisB, nisin dehydratase (Lactococcus lactis, UniProt P20103 1-993)
T1 construct: Nisin biosynthesis protein NisB (dehydratase), Lactococcus lactis; printed as about 117 kDa; source: expressed and purified as described previously (Mavaro 2011; Abts 2013; Reiners 2017)
T1 sequence (looked up): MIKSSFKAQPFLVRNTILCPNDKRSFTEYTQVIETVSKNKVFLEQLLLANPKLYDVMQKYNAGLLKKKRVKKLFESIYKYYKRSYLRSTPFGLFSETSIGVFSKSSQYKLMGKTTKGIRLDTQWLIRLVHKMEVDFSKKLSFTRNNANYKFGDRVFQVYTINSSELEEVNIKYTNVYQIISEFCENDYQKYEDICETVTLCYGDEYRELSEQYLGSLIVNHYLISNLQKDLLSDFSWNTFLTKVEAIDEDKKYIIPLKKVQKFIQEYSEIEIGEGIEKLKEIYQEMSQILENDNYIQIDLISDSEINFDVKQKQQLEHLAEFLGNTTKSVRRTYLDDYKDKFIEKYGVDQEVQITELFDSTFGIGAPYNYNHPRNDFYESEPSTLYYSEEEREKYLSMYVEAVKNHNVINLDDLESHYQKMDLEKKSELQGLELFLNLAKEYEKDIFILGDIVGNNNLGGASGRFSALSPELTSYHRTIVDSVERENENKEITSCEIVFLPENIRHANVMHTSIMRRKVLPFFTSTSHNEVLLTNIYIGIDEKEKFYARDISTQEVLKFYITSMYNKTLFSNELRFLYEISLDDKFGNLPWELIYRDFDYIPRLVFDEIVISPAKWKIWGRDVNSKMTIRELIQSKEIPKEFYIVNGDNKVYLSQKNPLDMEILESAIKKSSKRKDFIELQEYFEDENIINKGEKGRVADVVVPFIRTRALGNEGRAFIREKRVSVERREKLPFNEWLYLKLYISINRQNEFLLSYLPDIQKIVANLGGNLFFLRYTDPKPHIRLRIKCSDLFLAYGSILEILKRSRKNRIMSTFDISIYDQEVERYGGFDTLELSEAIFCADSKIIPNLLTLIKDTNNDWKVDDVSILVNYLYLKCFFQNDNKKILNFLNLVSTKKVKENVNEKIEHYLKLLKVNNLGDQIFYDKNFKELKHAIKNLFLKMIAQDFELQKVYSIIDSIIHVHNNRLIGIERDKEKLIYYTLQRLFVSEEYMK

B1: 10HNisT, deca-histidine tagged ABC transporter NisT (natural protein, Lactococcus lactis, UniProt Q03203 1-600, looked up)
chain: MDEVKEFTSKQFFYTLLTLPSTLKLIFQLEKRYAIYLIVLNAITAFVPLASLFIYQDLINSVLGSGRHLINIIIIYFIVQVITTVLGQLESYVSGKFDMRLSYSINMRLMRTTSSLELSDYEQADMYNIIEKVTQDSTYKPFQLFNAIIVELSSFISLLSSLFFIGTWNIGVAILLLIVPVLSLVLFLRVGQLEFLIQWQRASSERETWYIVYLLTHDFSFKEIKLNNISNYFIHKFGKLKKGFINQDLAIARKKTYFNIFLDFILNLINILTIFAMILSVRAGKLLIGNLVSLIQAISKINTYSQTMIQNIYIIYNTSLFMEQLFEFLKRESVVHKKIEDTEICNQHIGTVKVINLSYVYPNSNAFALKNINLSFEKGELTAIVGKNGSGKSTLVKIISGLYQPTMGIIQYDKMRSSLMPEEFYQKNISVLFQDFVKYELTIRENIGLSDLSSQWEDEKIIKVLDNLGLDFLKTNNQYVLDTQLGNWFQEGHQLSGGQWQKIALARTFFKKASIYILDEPSAALDPVAEKEIFDYFVALSENNISIFISHSLNAARKANKIVVMKDGQVEDVGSHDVLLRRCQYYQELYYSEQYEDNDE
notes: the nisT gene was amplified from genomic DNA of L. lactis NZ97000; 10HNisT is printed as 72.5 kDa (72.6 kDa in the methods), NisT as about 69 kDa; In the pull-down the detergent was CYMAL5; also called WT; source: L. lactis NZ9000 (pNZ-SV10HnisT), membranes solubilised with Fos-choline-16, purified (IMAC, SEC)
B2: NisC, nisin cyclase (enzyme, Lactococcus lactis, UniProt Q03202 1-418, looked up)
chain: MRIMMNKKNIKRNVEKIIAQWDERTRKNKENFDFGELTLSTGLPGIILMLAELKNKDNSKIYQKKIDNYIEYIVSKLSTYGLLTGSLYSGAAGIALSILHLREDDEKYKNLLDSLNRYIEYFVREKIEGFNLENITPPDYDVIEGLSGILSYLLLINDEQYDDLKILIINFLSNLTKENNGLISLYIKSENQMSQSESEMYPLGCLNMGLAHGLAGVGCILAYAHIKGYSNEASLSALQKIIFIYEKFELERKKQFLWKDGLVADELKKEKVIREASFIRDAWCYGGPGISLLYLYGGLALDNDYFVDKAEKILESAMQRKLGIDSYMICHGYSGLIEICSLFKRLLNTKKFDSYMEEFNVNSEQILEEYGDESGTGFLEGISGCILVLSKFEYSINFTYWRQALLLFDDFLKGGKRK
notes: Nisin biosynthesis protein NisC (cyclase), Lactococcus lactis; printed as about 48 kDa; source: expressed and purified as described previously (Mavaro 2011; Abts 2013; Reiners 2017)

Columns and labels:
NisB, nisin dehydratase = target: T1, NisB, nisin dehydratase; assay: pull-down; about 15 ug 10HNisT immobilised on Ni-NTA magnetic beads; 10 uM NisB, NisC or both, no substrate; 1 h at 30 C; 25 mM Tris-HCl pH 7.5, 50 mM KCl, 0.4% CYMAL5, 400 mM glutamate, 5 mM MgATP; six washes, elution with 50 mM EDTA, Western blot; details: both partners purified
[1] = target: B1; assay: pull-down; as a1, with NisB and NisC together (1:1), pre-incubated 15 min on ice with mNisA (20x molar excess to NisT); details: both partners purified

binding result (NisB, nisin dehydratase)	binding result [1]	Binder
binds		B1
	binds	B2
